This is an account of results in PMC10908814.

The series concerns the target T1, NgAgo (engineered Natronobacterium gregoryi Argonaute) (Natronobacterium gregoryi) (UniProt L0AJX6).
T1 sequence: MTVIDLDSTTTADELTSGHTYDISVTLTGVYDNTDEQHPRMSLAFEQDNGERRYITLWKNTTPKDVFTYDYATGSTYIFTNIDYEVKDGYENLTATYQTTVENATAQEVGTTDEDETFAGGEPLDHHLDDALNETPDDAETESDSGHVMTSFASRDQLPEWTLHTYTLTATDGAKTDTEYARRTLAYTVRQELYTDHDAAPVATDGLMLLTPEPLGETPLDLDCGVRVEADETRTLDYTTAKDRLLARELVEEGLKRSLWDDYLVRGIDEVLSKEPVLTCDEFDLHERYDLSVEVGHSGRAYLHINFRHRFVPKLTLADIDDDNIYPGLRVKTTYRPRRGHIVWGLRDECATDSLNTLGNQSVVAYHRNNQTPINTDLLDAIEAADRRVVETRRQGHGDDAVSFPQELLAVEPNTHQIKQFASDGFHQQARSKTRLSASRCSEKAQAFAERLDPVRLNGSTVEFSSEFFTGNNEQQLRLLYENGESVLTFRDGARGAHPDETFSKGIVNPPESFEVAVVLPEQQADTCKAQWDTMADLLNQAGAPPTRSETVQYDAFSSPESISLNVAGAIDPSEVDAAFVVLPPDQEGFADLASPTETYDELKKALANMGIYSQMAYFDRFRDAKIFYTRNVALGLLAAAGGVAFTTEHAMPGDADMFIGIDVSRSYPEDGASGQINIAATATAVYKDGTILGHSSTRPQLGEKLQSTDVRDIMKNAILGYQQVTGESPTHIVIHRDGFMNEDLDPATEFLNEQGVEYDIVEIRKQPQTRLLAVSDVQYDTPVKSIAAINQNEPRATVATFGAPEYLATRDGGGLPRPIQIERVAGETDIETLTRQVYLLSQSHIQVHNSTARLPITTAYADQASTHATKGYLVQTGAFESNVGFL
In words: SPR. The settings on record: 5'-phosphate on guide; SPR: 10 mM HEPES, 150 mM NaCl, 3 mM EDTA, pH 7.4, 0.005% Tween-20, temperature not stated; EMSA: 2% agarose, 1x TAE, 100 V.

As for “TAAACCCAAAGAATGTCTGAGGGG / CCCTCCTTTTGTAAACAATGCATTCATCGACCTTCCAGCCGGGGTTGGTTCTGCCCCTCTCTCTGTCCTTCAGAGGAACCAGGGACCTCGGGCACCCCAGAGCCCCTCGGGCCCGCCTCCAGGCGCCCTCCTGGTCTCCGCTCCCCTCTGAGCCCCGTTAAACCCAAAGAATGTCTGAGGGGAGCCACCCTCGGGGCCCAGGCCCCAGAGTCACAC / CCCCTCAGACATTCTTTGGGTTTA [g3 guide / EBV cfDNA SPR amplicon]”, the Kd (commonly the free concentration of one partner at which half of the binding sites on the other are occupied at equilibrium, for simple one-to-one binding) was found to be 5.49 nM.
